Legend:
[1] = target: MERTK (UniProt Q12866); experiment: phosphorylation enrichment, bacterial display (enrichment ratio); higher = better substrate or ligand; peptides without Tyr show the background
[2] = target: Hck (UniProt P08631); experiment: as above
[3] = tested on: AncSZ; experiment: as above
[4] = target: Fyn (UniProt P06241); experiment: as above
[5] = target: Jak2 (UniProt O60674); experiment: as above
[6] = target: FGFR1 (UniProt P11362); experiment: as above
[7] = tested on: c-Src; experiment: as above
[8] = tested on: c-Abl (mouse); experiment: as above
[9] = target: Fes (UniProt P07332); experiment: as above
[10] = target: EPHB2 (UniProt P29323); experiment: as above
[11] = target: FGFR3 (UniProt P22607); experiment: as above
[12] = target: EPHB1 (UniProt P54762); experiment: as above
[13] = tested on: Fer (mouse); experiment: as above
[14] = target: Grb2 SH2 (UniProt P62993); experiment: SH2 binding enrichment of the phosphorylated peptide, bacterial display (enrichment ratio); higher = better substrate or ligand; peptides without Tyr show the background
[15] = target: SHP2-C SH2; experiment: as above
[16] = target: c-Src SH2; experiment: as above
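For SH2 binding enrichment of the phosphorylated peptide, bacterial display in this document: peptide library displayed on the E. coli surface as eCPX fusions, selected cells deep-sequenced, score is each peptide's frequency after selection divided by its frequency in the input.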
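For phosphorylation enrichment, bacterial display in this document: 11-residue human phosphosite peptides and single-mutation variants displayed on the E. coli surface, counted by deep sequencing, each peptide's frequency after selection divided by its frequency in the unselected input library; frequency after pTyr selection over input frequency; kinase dosed for 20-30% of maximal phosphorylation in three min.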

EPHB2, sequence (P29323 whole entry, looked up): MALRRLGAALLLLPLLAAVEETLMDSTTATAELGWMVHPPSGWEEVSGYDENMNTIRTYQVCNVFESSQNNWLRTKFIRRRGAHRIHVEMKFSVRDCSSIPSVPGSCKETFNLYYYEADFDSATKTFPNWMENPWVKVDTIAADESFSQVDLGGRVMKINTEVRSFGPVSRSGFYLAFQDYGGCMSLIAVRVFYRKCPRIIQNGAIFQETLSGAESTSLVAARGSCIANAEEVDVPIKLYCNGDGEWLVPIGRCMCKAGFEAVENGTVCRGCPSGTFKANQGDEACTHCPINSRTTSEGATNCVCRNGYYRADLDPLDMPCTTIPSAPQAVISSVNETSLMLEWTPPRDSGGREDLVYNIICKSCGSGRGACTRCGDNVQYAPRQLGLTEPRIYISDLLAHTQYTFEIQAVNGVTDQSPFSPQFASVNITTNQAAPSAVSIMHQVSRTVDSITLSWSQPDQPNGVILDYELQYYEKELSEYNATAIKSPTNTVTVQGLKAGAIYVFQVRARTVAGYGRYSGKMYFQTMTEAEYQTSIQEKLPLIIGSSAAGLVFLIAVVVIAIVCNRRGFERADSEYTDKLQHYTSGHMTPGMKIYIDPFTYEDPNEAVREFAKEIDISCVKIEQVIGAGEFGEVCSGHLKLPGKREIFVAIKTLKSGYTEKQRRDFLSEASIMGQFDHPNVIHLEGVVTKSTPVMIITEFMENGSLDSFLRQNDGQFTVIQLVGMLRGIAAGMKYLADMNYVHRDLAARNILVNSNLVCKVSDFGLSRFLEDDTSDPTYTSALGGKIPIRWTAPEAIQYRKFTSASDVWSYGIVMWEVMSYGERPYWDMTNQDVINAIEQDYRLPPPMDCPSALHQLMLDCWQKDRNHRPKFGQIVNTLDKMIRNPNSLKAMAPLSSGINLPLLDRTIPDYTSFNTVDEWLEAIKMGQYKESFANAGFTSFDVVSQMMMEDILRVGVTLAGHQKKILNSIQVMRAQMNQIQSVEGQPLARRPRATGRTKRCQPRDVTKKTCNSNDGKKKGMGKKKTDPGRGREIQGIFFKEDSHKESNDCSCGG
FGFR1, sequence (P11362 whole entry, looked up): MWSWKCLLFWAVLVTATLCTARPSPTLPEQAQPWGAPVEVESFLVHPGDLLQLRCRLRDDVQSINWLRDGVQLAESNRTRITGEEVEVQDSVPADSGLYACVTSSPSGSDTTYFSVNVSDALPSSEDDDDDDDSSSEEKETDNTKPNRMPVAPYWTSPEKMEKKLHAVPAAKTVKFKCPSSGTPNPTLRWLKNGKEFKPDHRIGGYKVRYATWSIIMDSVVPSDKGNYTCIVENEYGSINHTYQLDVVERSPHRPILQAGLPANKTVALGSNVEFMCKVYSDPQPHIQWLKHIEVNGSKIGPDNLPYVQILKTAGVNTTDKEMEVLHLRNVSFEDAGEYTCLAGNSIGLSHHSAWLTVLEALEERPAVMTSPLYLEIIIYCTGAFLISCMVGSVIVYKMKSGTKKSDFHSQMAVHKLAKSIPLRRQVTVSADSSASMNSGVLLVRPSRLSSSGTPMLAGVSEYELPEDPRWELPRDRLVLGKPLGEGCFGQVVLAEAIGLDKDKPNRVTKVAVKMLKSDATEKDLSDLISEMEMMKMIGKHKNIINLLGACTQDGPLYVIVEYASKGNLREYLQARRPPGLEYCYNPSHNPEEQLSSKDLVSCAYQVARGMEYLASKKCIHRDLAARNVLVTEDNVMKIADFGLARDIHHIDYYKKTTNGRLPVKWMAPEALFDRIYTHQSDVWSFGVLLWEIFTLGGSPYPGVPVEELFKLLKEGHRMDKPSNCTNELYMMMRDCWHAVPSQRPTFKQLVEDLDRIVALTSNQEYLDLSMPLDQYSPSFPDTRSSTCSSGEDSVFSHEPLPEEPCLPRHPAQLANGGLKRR
Hck, sequence (P08631 whole entry, looked up): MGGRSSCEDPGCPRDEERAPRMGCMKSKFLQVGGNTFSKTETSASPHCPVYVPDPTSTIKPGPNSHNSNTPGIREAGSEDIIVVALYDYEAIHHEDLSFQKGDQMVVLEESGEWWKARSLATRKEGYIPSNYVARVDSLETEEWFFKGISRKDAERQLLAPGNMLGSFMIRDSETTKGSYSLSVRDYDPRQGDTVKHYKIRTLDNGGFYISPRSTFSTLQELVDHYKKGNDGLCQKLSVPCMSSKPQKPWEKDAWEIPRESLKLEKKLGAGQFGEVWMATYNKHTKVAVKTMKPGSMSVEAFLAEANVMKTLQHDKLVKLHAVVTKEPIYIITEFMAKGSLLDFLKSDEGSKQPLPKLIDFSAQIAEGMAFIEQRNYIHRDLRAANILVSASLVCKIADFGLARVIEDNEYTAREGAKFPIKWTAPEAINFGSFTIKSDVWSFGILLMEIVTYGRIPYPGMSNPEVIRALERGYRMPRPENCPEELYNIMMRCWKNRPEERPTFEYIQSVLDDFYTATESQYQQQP
EPHB1, sequence (P54762 whole entry, looked up): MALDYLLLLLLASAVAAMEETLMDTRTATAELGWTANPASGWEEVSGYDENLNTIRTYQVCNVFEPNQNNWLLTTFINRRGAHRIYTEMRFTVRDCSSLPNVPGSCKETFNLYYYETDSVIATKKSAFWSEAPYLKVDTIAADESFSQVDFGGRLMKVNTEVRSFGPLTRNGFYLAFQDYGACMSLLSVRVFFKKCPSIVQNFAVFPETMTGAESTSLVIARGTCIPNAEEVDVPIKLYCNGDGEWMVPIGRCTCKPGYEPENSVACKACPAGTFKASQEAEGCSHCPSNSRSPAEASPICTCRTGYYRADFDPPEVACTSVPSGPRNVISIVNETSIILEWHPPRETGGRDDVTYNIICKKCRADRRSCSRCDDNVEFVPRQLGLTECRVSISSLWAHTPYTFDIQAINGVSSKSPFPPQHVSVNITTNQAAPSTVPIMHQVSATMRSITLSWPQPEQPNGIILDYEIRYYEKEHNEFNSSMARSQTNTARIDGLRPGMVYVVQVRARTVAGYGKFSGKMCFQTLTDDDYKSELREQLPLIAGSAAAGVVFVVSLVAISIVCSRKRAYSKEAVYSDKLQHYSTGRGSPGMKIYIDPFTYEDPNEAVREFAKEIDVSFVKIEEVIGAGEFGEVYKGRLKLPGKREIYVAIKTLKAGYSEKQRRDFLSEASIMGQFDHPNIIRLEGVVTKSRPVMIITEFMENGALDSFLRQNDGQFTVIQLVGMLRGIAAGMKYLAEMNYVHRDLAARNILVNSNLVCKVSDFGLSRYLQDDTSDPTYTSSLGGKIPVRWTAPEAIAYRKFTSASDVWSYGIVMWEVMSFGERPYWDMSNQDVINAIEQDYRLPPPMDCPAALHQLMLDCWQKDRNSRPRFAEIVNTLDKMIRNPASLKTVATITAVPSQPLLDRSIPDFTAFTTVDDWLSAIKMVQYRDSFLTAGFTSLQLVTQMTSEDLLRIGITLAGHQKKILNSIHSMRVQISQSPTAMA
Fyn, sequence (P06241 whole entry, looked up): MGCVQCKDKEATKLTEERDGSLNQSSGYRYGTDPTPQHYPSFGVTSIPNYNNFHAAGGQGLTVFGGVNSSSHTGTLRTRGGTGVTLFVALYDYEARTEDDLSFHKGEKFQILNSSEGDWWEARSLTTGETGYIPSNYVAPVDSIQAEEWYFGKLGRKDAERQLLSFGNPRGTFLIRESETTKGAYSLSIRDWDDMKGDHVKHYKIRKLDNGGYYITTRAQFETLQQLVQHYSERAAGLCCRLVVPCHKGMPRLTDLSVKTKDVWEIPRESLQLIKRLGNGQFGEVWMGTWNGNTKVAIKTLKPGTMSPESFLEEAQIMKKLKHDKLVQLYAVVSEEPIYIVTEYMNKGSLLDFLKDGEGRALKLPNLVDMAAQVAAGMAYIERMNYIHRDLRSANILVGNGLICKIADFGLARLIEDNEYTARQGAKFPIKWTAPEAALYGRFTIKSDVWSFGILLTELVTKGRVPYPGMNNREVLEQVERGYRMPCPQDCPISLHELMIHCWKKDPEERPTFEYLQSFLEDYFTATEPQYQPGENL
Fes, sequence (P07332 whole entry, looked up): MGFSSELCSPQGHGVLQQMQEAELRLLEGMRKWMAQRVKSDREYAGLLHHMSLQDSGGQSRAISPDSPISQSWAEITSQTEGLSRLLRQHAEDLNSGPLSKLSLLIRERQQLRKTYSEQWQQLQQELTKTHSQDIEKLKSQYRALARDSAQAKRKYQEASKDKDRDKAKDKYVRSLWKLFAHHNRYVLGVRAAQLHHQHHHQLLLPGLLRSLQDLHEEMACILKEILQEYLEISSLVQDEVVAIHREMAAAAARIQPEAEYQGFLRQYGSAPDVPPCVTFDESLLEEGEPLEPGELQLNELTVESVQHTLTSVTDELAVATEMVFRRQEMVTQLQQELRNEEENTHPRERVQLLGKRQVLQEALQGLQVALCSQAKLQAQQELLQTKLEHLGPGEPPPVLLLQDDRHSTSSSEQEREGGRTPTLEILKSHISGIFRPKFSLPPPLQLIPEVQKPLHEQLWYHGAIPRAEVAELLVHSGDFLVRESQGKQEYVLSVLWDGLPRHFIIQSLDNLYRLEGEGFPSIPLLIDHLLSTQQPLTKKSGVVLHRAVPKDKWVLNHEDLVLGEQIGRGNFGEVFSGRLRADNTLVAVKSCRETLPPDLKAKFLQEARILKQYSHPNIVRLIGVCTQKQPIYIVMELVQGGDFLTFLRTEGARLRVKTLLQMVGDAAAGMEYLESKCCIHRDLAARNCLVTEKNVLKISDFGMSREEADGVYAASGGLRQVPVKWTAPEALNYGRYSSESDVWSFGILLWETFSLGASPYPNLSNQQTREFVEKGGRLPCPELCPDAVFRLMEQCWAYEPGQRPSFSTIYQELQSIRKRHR
Grb2 SH2, sequence (P62993 whole entry, looked up): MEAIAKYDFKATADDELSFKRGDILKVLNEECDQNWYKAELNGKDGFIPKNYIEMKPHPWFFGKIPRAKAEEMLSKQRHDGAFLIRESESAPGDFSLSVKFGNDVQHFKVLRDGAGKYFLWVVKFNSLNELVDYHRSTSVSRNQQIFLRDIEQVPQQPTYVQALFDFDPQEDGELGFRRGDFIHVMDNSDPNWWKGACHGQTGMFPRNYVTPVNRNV

| Sequence | phosphorylation enrichment [1] | phosphorylation enrichment [2] | phosphorylation enrichment [3] | phosphorylation enrichment [4] | phosphorylation enrichment [5] | phosphorylation enrichment [6] | phosphorylation enrichment [7] | phosphorylation enrichment [8] | phosphorylation enrichment [9] | phosphorylation enrichment [10] | phosphorylation enrichment [11] | phosphorylation enrichment [12] | phosphorylation enrichment [13] | SH2 binding enrichment [14] | SH2 binding enrichment [15] | SH2 binding enrichment [16] |
| --- | --- | --- | --- | --- | --- | --- | --- | --- | --- | --- | --- | --- | --- | --- | --- | --- |
| VGIMLYGVDSR [PKD1_Y3143] | 0.383 | 0.61 | 1.12 | 0.572 | 1.05 | 0.592 | 0.435 | 0.77 | 1.19 | 0.626 | 0.792 | 0.575 | 0.634 | 0.888 | 0.63 | 0.489 |
| VHFARYLAMNK [HARS1_Y138_P134H] | 0.509 | 0.506 | 0.864 | 0.557 | 0.661 | 0.511 | 0.553 | 0.565 | 0.902 | 0.555 | 0.771 | 0.504 | 0.44 | 0.931 | 0.72 | 0.403 |
| VIKDKYPQARF [APTX_Y209_K211Q_YF] | 0.406 | 0.308 | 0.453 | 0.35 | 0.553 | 0.367 | 0.44 | 0.47 | 0.579 | 0.326 | 0.469 | 0.436 | 0.328 | 1.06 | 1.02 | 0.562 |
| VKPENYRRLDV [VHL_Y175_I180V] | 0.465 | 0.387 | 0.532 | 0.461 | 0.463 | 0.429 | 0.372 | 0.814 | 0.593 | 0.386 | 0.506 | 0.561 | 0.334 | 0.778 | 0.635 | 0.465 |
| VLALWYYYLTH [ZDHHC23_Y127] | 2.99 | 0.783 | 1.45 | 0.646 | 2.57 | 6.87 | 1.24 | 0.964 | 1.64 | 0.74 | 5.65 | 0.81 | 0.724 | 2.15 | 1.62 | 1.5 |
| VMIYAYLLHRG [PTEN_Y138_C136Y] | 0.591 | 0.697 | 0.821 | 0.443 | 0.733 | 0.351 | 0.46 | 0.748 | 0.856 | 0.455 | 0.703 | 0.479 | 0.371 | 1.34 | 0.741 | 0.806 |
| VNNAVYGIDAM [EIF3J_Y143] | 0.426 | 0.829 | 0.86 | 1.09 | 0.764 | 0.506 | 1 | 0.509 | 0.88 | 0.437 | 0.502 | 0.417 | 0.486 | 0.771 | 0.763 | 0.507 |
| VPEANYTSDEE [STK33_Y439_D436E] | 0.699 | 0.576 | 1.42 | 0.665 | 1.99 | 0.607 | 0.614 | 1.17 | 1.52 | 0.691 | 0.947 | 0.897 | 0.721 | 0.831 | 0.579 | 0.46 |
| VPLATYMQIFK [RPL21_Y30_R32Q_YF] | 0.613 | 1.8 | 0.745 | 0.887 | 0.836 | 0.471 | 1.54 | 0.361 | 0.654 | 0.648 | 0.54 | 1.83 | 0.308 | 0.859 | 0.682 | 0.866 |
| VRRVGYVSGWG [HP_Y280_G276R] | 0.387 | 0.438 | 0.613 | 0.388 | 0.514 | 0.373 | 0.434 | 0.642 | 0.61 | 0.423 | 0.391 | 0.422 | 0.469 | 0.95 | 0.579 | 0.494 |
| VRVQLYDPDYM [CYP4A22_Y100] | 0.887 | 0.807 | 1.56 | 0.493 | 1.15 | 0.538 | 0.615 | 0.79 | 1.27 | 0.776 | 0.741 | 1.27 | 0.599 | 1.08 | 1.45 | 0.545 |
| VTVLDYDKIGK [SYT1_Y365] | 0.48 | 0.648 | 0.621 | 0.343 | 0.501 | 0.505 | 0.391 | 0.482 | 0.828 | 0.541 | 0.515 | 0.45 | 0.404 | 0.774 | 0.777 | 2.88 |
| VVSMNYRVGAL [BCHE_Y174] | 0.362 | 0.43 | 0.703 | 0.336 | 0.722 | 0.524 | 0.342 | 0.556 | 0.802 | 0.445 | 0.534 | 0.511 | 0.333 | 0.475 | 0.771 | 0.446 |
| WCSNDYLGMSQ [ALAS2_Y199_R204Q] | 0.478 | 0.738 | 2.88 | 0.541 | 4.19 | 3.03 | 1.06 | 0.782 | 1.02 | 0.944 | 2.11 | 1.52 | 0.642 | 1.1 | 0.738 | 0.717 |
| WGLCSYYETSK [MAGED2_Y448_R446C] | 0.56 | 0.58 | 1.38 | 0.488 | 1.35 | 0.76 | 0.712 | 0.818 | 1.31 | 0.73 | 1.02 | 0.865 | 0.572 | 0.765 | 0.526 | 0.586 |
| WHHTFYNEPRV [ACTA1_Y93_L96P] | 0.59 | 0.552 | 0.965 | 0.429 | 0.794 | 0.522 | 0.508 | 0.709 | 1.03 | 0.497 | 0.561 | 0.573 | 0.582 | 1.4 | 1.07 | 1.57 |
| WKESWYSMRKM [FGB_Y475_G472E] | 0.544 | 0.591 | 1.05 | 0.554 | 1.33 | 0.513 | 0.672 | 0.792 | 1.34 | 0.669 | 0.738 | 0.714 | 0.535 | 1.08 | 0.969 | 0.708 |

| Sequence | phosphorylation enrichment [1] | phosphorylation enrichment [2] | phosphorylation enrichment [3] | phosphorylation enrichment [4] | phosphorylation enrichment [5] | phosphorylation enrichment [6] | phosphorylation enrichment [7] | phosphorylation enrichment [8] | phosphorylation enrichment [9] | phosphorylation enrichment [10] | phosphorylation enrichment [11] | phosphorylation enrichment [12] | phosphorylation enrichment [13] | SH2 binding enrichment [14] | SH2 binding enrichment [15] | SH2 binding enrichment [16] |
| --- | --- | --- | --- | --- | --- | --- | --- | --- | --- | --- | --- | --- | --- | --- | --- | --- |
| WLFFRYLAIGC [ATP2A2_Y836] | 0.482 | 0.462 | 1.51 | 0.477 | 1.49 | 0.503 | 0.432 | 1.09 | 1.55 | 0.496 | 0.798 | 0.633 | 0.573 | 0.826 | 0.573 | 0.36 |
| WNEVGYDDIGG [VCP_Y203_L198W] | 0.406 | 0.538 | 1.07 | 0.422 | 1.14 | 0.557 | 0.502 | 0.737 | 1.27 | 0.515 | 0.724 | 0.608 | 0.53 | 0.973 | 0.566 | 9.33 |
| WNGDKYAATTT [TRIM39_Y439] | 0.381 | 0.52 | 0.717 | 0.48 | 0.729 | 0.654 | 0.421 | 0.513 | 0.731 | 0.592 | 0.679 | 0.462 | 0.446 | 0.994 | 0.61 | 0.481 |
| WQQQSYLDFGI [CTNNB1_Y30_S33F] | 0.418 | 0.441 | 0.883 | 0.524 | 0.974 | 0.816 | 0.544 | 0.658 | 1.04 | 0.564 | 0.757 | 0.635 | 0.39 | 0.999 | 0.776 | 0.592 |
| WQQQSYLDSGS [CTNNB1_Y30_I35S] | 0.397 | 0.45 | 0.781 | 0.423 | 0.581 | 0.561 | 0.363 | 0.56 | 0.741 | 0.528 | 0.536 | 0.436 | 0.675 | 0.733 | 0.582 | 0.481 |
| WRPFGYPRCRR [BCS1L_Y181_R184C] | 0.505 | 0.454 | 0.599 | 0.498 | 0.485 | 0.505 | 0.528 | 0.403 | 0.509 | 0.478 | 0.459 | 0.444 | 0.447 | 0.714 | 0.39 | 0.459 |
| WRVIGYHVVVW [ATP13A2_Y50] | 0.417 | 0.568 | 1.21 | 0.444 | 1.19 | 0.551 | 0.501 | 0.903 | 1.25 | 0.692 | 0.828 | 0.695 | 0.587 | 1.08 | 0.915 | 0.727 |
| WVFNHYRWFIW [BRCA2_Y2624_I2627F_YF] | 0.463 | 0.482 | 1.13 | 0.462 | 1.25 | 0.49 | 0.409 | 0.898 | 1.32 | 0.636 | 0.813 | 0.654 | 0.575 | 0.941 | 0.693 | 0.587 |
| YAANYYKLLGN [ROR2_Y646_D644N] | 0.832 | 0.406 | 0.566 | 0.46 | 0.917 | 1.76 | 0.462 | 0.579 | 0.609 | 0.546 | 1.35 | 0.566 | 0.506 | 0.872 | 0.685 | 0.501 |
| YADPYYDYEIE [ZC3H18_Y372] | 2.18 | 1.06 | 1.95 | 2.52 | 1.24 | 9.62 | 3.01 | 0.853 | 1.31 | 1.94 | 7.39 | 2.05 | 1.58 | 0.787 | 0.545 | 2.04 |
| YDGKDYIALKE [HLA-A_Y147_N151K] | 0.439 | 0.49 | 1.12 | 0.493 | 1.03 | 0.702 | 0.377 | 0.72 | 0.913 | 0.648 | 0.739 | 0.669 | 0.49 | 0.891 | 0.648 | 0.495 |
| YDKEYYSVHNK [MET_Y1235] | 0.441 | 0.922 | 1.36 | 0.455 | 1.01 | 4.29 | 0.881 | 0.684 | 0.754 | 0.428 | 2.95 | 0.542 | 0.425 | 0.759 | 0.399 | 0.478 |
| YEREQYADRTR [RBM4_Y355_A359T] | 0.448 | 0.469 | 0.897 | 0.439 | 0.603 | 0.566 | 0.443 | 0.55 | 0.706 | 0.419 | 0.472 | 0.343 | 0.494 | 0.878 | 0.717 | 0.61 |
| YETVKYINNER [ABCB7_Y345_F346I] | 0.903 | 1.96 | 0.858 | 1.22 | 0.803 | 1.22 | 1.1 | 0.619 | 0.943 | 0.623 | 0.832 | 0.73 | 10.5 | 1.48 | 1.24 | 11.8 |
| YGCGMYSHLQG [LGR4_Y848_D844G] | 5.25 | 4.44 | 1.2 | 1.51 | 0.723 | 1.06 | 2.87 | 1.49 | 1.07 | 1.07 | 0.998 | 1.06 | 1.24 | 0.854 | 0.991 | 1.96 |
| YGSSSSGGAGG [RPA2_Y14_Y14S] | 0.355 | 0.359 | 0.604 | 0.389 | 0.392 | 0.403 | 0.337 | 0.317 | 0.535 | 0.461 | 0.347 | 0.304 | 0.437 | 0.711 | 0.612 | 0.395 |
